* marks the point of attachment. Biotin = O=C1N[C@H]2[C@H](CS[C@H]2CCCCC(=O)*)N1; Ahx = NCCCCCC(=O)O
How the values were obtained:
[1] = molecular target: T1, C-terminal His tagged Sov NTD (aa 14–90) (D. melanogaster, UniProt Q9W3W6 14-90); assay: ITC
T1 sequence (looked up): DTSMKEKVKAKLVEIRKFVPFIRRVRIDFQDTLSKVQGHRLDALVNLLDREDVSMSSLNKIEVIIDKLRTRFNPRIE

[2] = molecular target: T2, Recombinant GFP-tagged Sov core NTD (aa 14–90), NTD Δ-SIMs (D. melanogaster, UniProt Q9W3W6 14-90); assay: pull-down
T2 sequence (looked up): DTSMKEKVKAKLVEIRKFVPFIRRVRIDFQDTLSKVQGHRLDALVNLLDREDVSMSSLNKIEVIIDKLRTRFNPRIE

B1: His-SUMO tagged Panx LxxLL peptide (aa 82–108), wildtype (peptide, UniProt Q9W2H9 82-108, looked up)
chain: KMEPKIKEDADNAMLDSLLADPFENNS
[1]
  stoichiometry N: 1.05 ± 0.03

B2: Panx LxxLL peptide (aa 82–108), wildtype, biotinylated (peptide, UniProt Q9W2H9 82-108, looked up)
peptide: {Biotin-Ahx}-KMEPKIKEDADNAMLDSLLADPFENNS-NH2
SMILES: CC[C@H](C)[C@H](NC(=O)[C@H](CCCCN)NC(=O)[C@@H]1CCCN1C(=O)[C@H](CCC(=O)O)NC(=O)[C@H](CCSC)NC(=O)[C@H](CCCCN)NC(=O)CCCCCNC(=O)CCCC[C@@H]1SC[C@@H]2NC(=O)N[C@@H]21)C(=O)N[C@@H](CCCCN)C(=O)N[C@@H](CCC(=O)O)C(=O)N[C@@H](CC(=O)O)C(=O)N[C@@H](C)C(=O)N[C@@H](CC(=O)O)C(=O)N[C@@H](CC(N)=O)C(=O)N[C@@H](C)C(=O)N[C@@H](CCSC)C(=O)N[C@@H](CC(C)C)C(=O)N[C@@H](CC(=O)O)C(=O)N[C@@H](CO)C(=O)N[C@@H](CC(C)C)C(=O)N[C@@H](CC(C)C)C(=O)N[C@@H](C)C(=O)N[C@@H](CC(=O)O)C(=O)N1CCC[C@H]1C(=O)N[C@@H](Cc1ccccc1)C(=O)N[C@@H](CCC(=O)O)C(=O)N[C@@H](CC(N)=O)C(=O)N[C@@H](CC(N)=O)C(=O)N[C@@H](CO)C(N)=O
[2]
  binding result: binds
